# From the supplement of paper PMC9732359
# ± gives the uncertainty stated by the source.
# Assay: protein stability index of a GFP-peptide fusion (yeast GPS) (PSI 1-4); higher = more stable; sorted into four equal gates, so the index is relative within each strain
# Conditions: doa10∆
# In short: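 Tiled 17-residue peptides from yeast proteins were fused downstream of GFP on a plasmid that also expresses Cherry, and the pooled library was carried in yeast. Mid-log cultures grown in leucine-free medium were sorted into four equal gates by GFP/Cherry fluorescence ratio. Plasmids from each gate were PCR-amplified and Illumina-sequenced, and reads were assigned to strains by barcodes. Each peptide's protein stability index is the sum, over gates, of the gate's read frequency multiplied by its gate number.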
row,Sequence,protein stability index
1,PEDALVNDFSDITSDQL [SMC3],3.32 ± 0.076

# Same assay, conditions: pdr5∆
row,Sequence,protein stability index
1,NKQPRNESFNRRISSMP [YAR002W/NUP60],3.04 ± 0.07
2,NKSTSSEAEYSKDIETL [YIL149C/MLP2],2.97 ± 0.099
3,NKTAHLSIPGKSTPEGT [SNU114],3.04 ± 0.061
4,NKTKAVDNTVPSTTLFN [YOR098C/NUP1],2.58 ± 0.067
5,NKVVVNLNDAGLALQLF [RPN2],2.19 ± 0.12
6,NLCKIIEPFECVEISHI [RPN6],2.09 ± 0.2
7,NLFKINSIDVPIRINST [YMR129W/POM152],2.2 ± 0.042
8,NLGEYYAQIGDKDNAEK [RPN7],2.05 ± 0.075
9,NLGIPKIAYRGVKDCQE [SSN2],1.58 ± 0.19
10,NLGRAVFWEIQSRVPTS [PRP8],2.22 ± 0.17
11,NLHAEGWPKLQLGPQTP [ECM29],2.74 ± 0.18
12,NLLPKKSAKTAKASQEL [HTA2],3.05 ± 0.12
13,NLLVLRGKNEIIQNAQR [RPO21],1.41 ± 0.092
14,NLNTDKLKNNASRSQLE [YJL039C/NUP192],2.69 ± 0.065
15,NLNVYIQVFEKPFLKKT [CDC53],2.23 ± 0.056
16,NLPPHYALFLKALRRKI [SSN2],1.79 ± 0.095
17,NLQQDKTNFQDVILDYQ [REC8],3.19 ± 0.05
18,NLSSTPMETLLSGLSAD [YML031W/NDC1],2.59 ± 0.071
19,NLTPANILNMSMNNDFQ [PGD1],3.22 ± 0.091
20,NMEIRNLRLKILTIIEE [GRR1],1.53 ± 0.049
21,NMNNGGKELDSLDLNNL [PGD1],3.24 ± 0.11
22,NMTTIADRNDDDEGSFA [SRB6],3.4 ± 0.3
23,NMVRNNNNNTIDESMPD [GRR1],3.12 ± 0.061
24,NNETEQLKAEEKKILNQ [SMC1],3.15 ± 0.17
25,NNGDKDHLKLVSLFSNL [YIL149C/MLP2],2.67 ± 0.19
26,NNIEENLRLLNSIDSTS [ECM29],3.33 ± 0.057

row,Sequence,protein stability index
1,NNNGLPQNGNINNNINI [GAL11],3.29 ± 0.071
2,NNNGNSAASKKKKNKNK [SRP21],3 ± 0.12
3,NNNSSNEKEQLSFINPK [SEC65],3.11 ± 0.052
4,NNPKIQTKDSVKEIVLP [IRR1],2.94 ± 0.077
5,NNPKVKTSKRTKRWYKN [RPS11A],3.28 ± 0.094
6,NNPQVVNAITVAQQQVQ [SNF5],1.78 ± 0.047
7,NNQSKEKADYEDEMMHE [RPN12],2.7 ± 0.06
8,NNTHVGRQFCNRLSRIH [YLR018C/POM34],2.69 ± 0.17
9,NNTNTDNVSGLTRNAPL [SNF2],3.35 ± 0.049
10,NPFTSATSSTNANAGLF [YOR098C/NUP1],2.84 ± 0.1
11,NPYNIVPQGKIVALTNA [SMC3],2.78 ± 0.086
12,NQIWNIALNLASKKFGK [SSN2],2.88 ± 0.052
13,NQLTESASHFEQYTKKI [YJL041W/NSP1],2.45 ± 0.065
14,NQNSSTGAGAFGTGQST [YJL041W/NSP1],1.99 ± 0.062
15,NRDPVKHAEFDLSLLGY [SIR2],2.75 ± 0.21
16,NRPNTLDPALLRPGRID [RPT1],3.01 ± 0.14
17,NRQQKKRRFDPSSSDSN [RRP6],2.69 ± 0.078
18,NRQTLMFTATMTPVIEK [PRP28],2.62 ± 0.052
19,NRQVMHKMGVERSSKRL [SIR3],3.49 ± 0.14
20,NRSEQNGQEQQGPVKNT [RGR1],3.39 ± 0.14
21,NSCFSDGSQQNLQQDKT [REC8],2.76 ± 0.13
22,NSDDIIDVDMDASPAPS [SRB5],2.89 ± 0.061
23,NSDDILSLHENYPQDEI [POP1],3.12 ± 0.073
24,NSDKPRDVYVFDKVEVQ [DIS3],2.93 ± 0.066
25,NSESTTQGGNVNLDNTA [RPT5],3.41 ± 0.12
26,NSFYYTSLLYLSTLEPS [RPN9],1.56 ± 0.046

row,Sequence,protein stability index
1,NSGKQQYYRGLPLYEKN [SWP82],2.5 ± 0.06
2,NSIDINYKGLPKKYKEN [SMC1],3.16 ± 0.08
3,NSIKNVPPILIILPLDN [SSN2],1.61 ± 0.11
4,NSINNNNIKNGTNNISQ [YDL088C/ASM4],2.75 ± 0.046
5,NSITKDNIDYAPMRLAT [YJL039C/NUP192],2.74 ± 0.038
6,NSLKETLQDFHLIFSNA [SNF2],2.82 ± 0.068
7,NSNINTLTASPDGTLIA [ASC1],2.68 ± 0.061
8,NSNTTNQNSSTGAGAFG [YJL041W/NSP1],3.07 ± 0.074
9,NSRGKFDDACNQIWNIA [SSN2],3.01 ± 0.1
10,NSSEEDKKKGQNVTSET [ITC1],3.31 ± 0.17
11,NSSTSPAPSIPSTGFKF [YLR335W/NUP2],2.5 ± 0.036
12,NSTATMQHNPLAGKRGP [PGD1],3.09 ± 0.044
13,NSTSKNTLLQQQNYSKV [SWI1],2.86 ± 0.12
14,NTEITQKSSKENIENEE [ECM29],3.28 ± 0.087
15,NTFQKTVEPVYQMHIKT [FAS1],1.78 ± 0.046
16,NTHNKSTKRVTKHPSLK [POP7],2.78 ± 0.062
17,NTILNSSSDFRLHYYPK [BRR2],3.17 ± 0.067
18,NTKVPVDIVNQWFLQYQ [YML103C/NUP188],2.15 ± 0.038
19,NTNPSPLKTQTKNGTPN [GAL11],2.9 ± 0.05
20,NTPLSLPTRGTLESLEN [COR1],2.37 ± 0.08
21,NTRKNMSISLESSKALA [DIS3],2.24 ± 0.1
22,NTTKTADTKAPTFTFGS [YLR335W/NUP2],3.33 ± 0.063
23,NTVMLQGIFKNSSNYFG [AAR2],1.29 ± 0.094
24,NTVPQVTNFNSTNEDQN [SRB5],3.21 ± 0.056
25,NVAHRIKEDIKKQPSIL [SNF2],3.21 ± 0.14
26,NVDGNIKIVYALTTIKG [RPS18A],1.49 ± 0.18

row,Sequence,protein stability index
1,NVDVCVMEIGKDAEYLR [PUP1],2.73 ± 0.063
2,NVFTPEISSQIEILVKD [RRI2],2.02 ± 0.12
3,NVGDNNSTASSSNISPE [ARP7],3.11 ± 0.062
4,NVHGSLEPFLLMLEDTD [BRR2],2.63 ± 0.088
5,NVKTSVSQLYRISEKSV [RPO31],3.22 ± 0.1
6,NVLVTMPVAPTMEVKSF [YMR129W/POM152],1.62 ± 0.11
7,NVSFVLPDEKSDAMSID [YCG1],3.3 ± 0.051
8,NVTFGSKKDPRILKNVS [YMR153W/NUP53],2.69 ± 0.056
9,NVTSSGDHNKLRSTIAN [YML103C/NUP188],2.48 ± 0.062
10,NWIKPSDSEIPPLLVYK [PRP8],2.24 ± 0.056
11,NWLSIFNDFSNIKTSEW [REC8],2.95 ± 0.061
12,NWYKSKKKAFTKYSAKY [RPL3],3.25 ± 0.1
13,NYDIITASSLAHDYNND [YML103C/NUP188],2.05 ± 0.075
14,NYHPNASITPYKLVNKN [RPN4],2.38 ± 0.078
15,PAGFTHKLSNWLFGWND [YDL088C/ASM4],3.07 ± 0.067
16,PAGHAGNPTNISSPIVA [YDL088C/ASM4],2.71 ± 0.065
17,PAIPPVIDLEKIKFDES [BRR2],2.84 ± 0.093
18,PANHLQSDFCLSWCPSR [YGL100W/SEH1],2.05 ± 0.12
19,PCVEDGFVIQDRETALD [RPB2],3.18 ± 0.11
20,PDAQNELPKFILSDSPL [DIS3],3.03 ± 0.063
21,PDCKIKIAHGTTTLAFR [PRE2],2.72 ± 0.056
22,PDDEKFTDENTIVLSLN [RPC40],3.6 ± 0.085
23,PDIADIPRTFRTPVPST [SNF5],1.96 ± 0.059
24,PDKDYLLSIPISCPLIG [FAS1],1.64 ± 0.13
25,PDLQFIVISLKNTMFEK [SMC1],2.68 ± 0.071
